# B1: [N-(γ-maleimido)-1-oxybutyl]n-I-domain (protein, listed as Homo sapiens)
# chain: MGNVDLVFLFDGSMSLQPDEFQKILDFMKDVMKKLSNTSYQFAAVQFSTSYKTEFDFSDYVKRKDPDALLKHVKHMLLLTNTFGAINYVATEVFREELGARPDATKVLIIITDGEATDSGNIDAAKDIIRYIIGIGKHFQTKESQETLHKFASKPASEFVKILDTFEKLKDLFTELQKKIY
# modifications: GMBS maleimide-modified lysines
# notes: I-domain with lysine amino groups modified by GMBS to carry maleimide groups; negative control and intermediate
# B2: (HSLGKWLGHPDKFC)n-linker-I-domain (conjugate, listed as Homo sapiens)
# chain 1: HSLGKWLGHPDKFC
# chain 2: B1 chain
# modifications: maleimide linker conjugation, ~2.5 peptides; Chemically synthesized signal 1 moiety peptide with amino acids 139-151 of PLP protein modified with a terminal cysteine
# notes: PLP-Cys-OH peptides conjugated via maleimide linkers to lysine residues of LFA-1 I-domain; average 2.5 peptides per I-domain
# Assays:
# [1] = Solubility of peptide during conjugation; type: physicochemical; settings: conjugation reaction mixture; peptide dissolved in DMSO before addition
# mouse EAE model = assay: Suppression of EAE in PLP139-151/CFA-immunized mice (Example 1); type: in vivo, female inbred SJL/J mice; settings: for clinical disease scores (suppression of EAE) / incidence of disease: Ac-PLP-BPI-NH2-2 100 nmol/injection days 4, 7, 10; for clinical disease scores (suppression of EAE): p<0.0001, days 12-17; for incidence of disease: p<0.0001, days 12-24
# Experimental: Female inbred SJL/J mice, 5-7 weeks old, were randomly divided into different groups. All mice were immunized with PLP139-151 in Freund's complete adjuvant (CFA) to induce EAE, as reported previously (3, 4). The PLP/CFA emulsion (50 μL per site) was administered to four separate regions above the shoulder and on the flanks. In addition, 200 ng of pertussis toxin (List Biological Laboratories Inc., Campbell, Calif.) was injected intraperitoneally on day 0 and 2.
# After disease stimulation, one group of mice received intravenous (i.v.) injections of 26 nmol/injection/day of the conjugate IDAC on days 4 and 7. The second and third groups of mice received i.v. injections of 100 nmol/injection/day of Ac-PLP-BPI-NH2-2 and 100 microliter of PBS, respectively, on days 4, 7, and 10. The animals were weighed and observed daily. Disease progression was evaluated observed using a blinded method as reported previously (3, 4). The clinical scores were rated using the following scale: 0—no clinical signs of disease; 1—tail weakness or limp tail; 2—paraparesis (weakness or incomplete paralysis of one or two hind limbs); 3—paraplegia (complete paralysis of two hind limbs); 4—paraplegia with forelimb weakness or paralysis; and 5—moribund or dead.
# Statistical differences among the groups in clinical disease scores were determined by calculating the average score for each mouse from the day of disease onset to day 20 by One-way Analysis of Variance followed by Fisher's least significant difference using StatView (SAS Institute, Cary, N.C.). Statistical differences among the groups in body weight were also analyzed in the same way. The presence of significant difference is denoted with p-values of <0.05 or <0.001.
# EAE mouse model [2] = assay: Suppression of EAE, prophylactic and vaccine-like treatment (Example 2); type: in vivo, SJL/J female mice
# Experimental: Six-to-eight week old SJL/J female mice were immunized subcutaneously with 200 μg PLP139-151 peptide in a 0.2 ml emulsion consisting of equal volumes of PBS and complete Freund's adjuvant (CFA) containing killed mycobacterium tuberculosis strain H37RA at a final concentration of 4 mg/ml (Difco, Detroit, Mich.). The PLP/CFA emulsion was administered to regions above the shoulder and the flanks (total of 4 sites, 50 μl at each injection site). In addition, 200 ng of pertussis toxin was injected intraperitoneally on the day of immunization (day 0) and 2 days post-immunization.
# The mice then received either intravenous or subcutaneous injections of IDAC (10 or 26 nmol/injection) or peptides (100 nmol/injection for Ac-PLP-BPI-NH2-2 or 50 nmol/injection/mouse for Ac-PLP-cIBR1-NH2). The prophylactic disease suppression was carried out with subcutaneous or intravenous injections of IDAC molecules on days 4 and 7, or BPI molecules on days 4, 7, and 10. Mice receiving vaccine-like treatment were given subcutaneous injections of IDAC and BPI molecules at 11, 8, and 5 days prior to the induction of disease. As negative controls, mice were treated with PBS, 1-domain, and GMB-I-domain. Disease progression was evaluated by monitoring the change in weight of the mice and clinical scoring based on the severity of nerve damage ranging from 0 to 5: 0—no clinical symptoms of disease; 1—tail weakness or limp tail; 2—paraparesis (weakness or partial paralysis of one or two hind limbs); 3—paraplegia (complete paralysis of two hind limbs); 4—paraplegia with forelimb weakness or paralysis; 5—moribund (at this point, the affected mice were euthanized).
# Statistical differences among the groups in clinical disease scores were determined by calculating the average score for each mouse from day 12 to day 17 by one-way analysis of variance followed by Fisher's least significant difference. Statistical differences in body weight among groups were also analyzed in the same fashion, but from day 12 to day 24. Comparison of cytokine concentrations was also performed by one-way analysis of variance. All analyses were performed using StatView (SAS Institute, Cary, N.C.).
# EAE mouse model [3] = settings: earlier study (ref. 7); cited from earlier work
# [4] = Hydrolysis of maleimide groups upon storage; type: physicochemical; settings: storage after SEC purification; to be used within 48 h
# [5] = i.v., IDAC 26 nmol/injection days 4, 7, vs PBS
molecule,measurement,setting,value
"Ac-GWYRSPFSRVVHLC-NH2 [MOG-Cys, Ac-GWYRSPFSRVVHLC-NH2]",solubility,[1],low solubility
"Ac-HSLGKWLGHPDKF-(AcpGAcpGAcp)2-ITDGEATDSG-NH2 [Ac-PLP-BPI-NH2-2, reference compound]",clinical disease scores (suppression of EAE),mouse EAE model; [5],complete suppression of the disease
same,incidence of disease,mouse EAE model; [5],completely eliminated
same,clinical scores (suppression of EAE),"EAE mouse model [2]; vaccine-like s.c. days -11, -8, -5, IDAC-3 10 nmol/injection, Ac-PLP-BPI-NH2-2 100 nmol/injection, vs PBS, p<0.005, days 12-17",significantly suppressed EAE compared to PBS
same,change in body weight,"EAE mouse model [2]; vaccine-like s.c. days -11, -8, -5, IDAC-3 10 nmol/injection, Ac-PLP-BPI-NH2-2 100 nmol/injection, vs PBS, p<0.005, days 12-24",significantly suppressed EAE compared to PBS
same,onset of disease (incidence of disease),"EAE mouse model [2]; vaccine-like s.c., IDAC-3 26 nmol/injection days -11, -8, Ac-PLP-BPI-NH2-2 100 nmol/injection days -11, -8, -5",Delay in the onset of disease
same,relapse of disease (long-term effect),"EAE mouse model [2]; vaccine-like s.c., IDAC-3 26 nmol/injection days -11, -8, Ac-PLP-BPI-NH2-2 100 nmol/injection days -11, -8, -5, days 45-55",along-term effect to prevent relapse
same,"suppression of EAE, capped vs uncapped peptide",EAE mouse model [3],could suppress EAE better than its uncapped counterpart (PLP-BPI)
B1,formation of maleimide hydrolysis products (stability),[4],increased upon storage
same,"suppression of progress of EAE (clinical score, change in body weight, incidence of disease)","EAE mouse model [2]; two i.v. injections, 26 nmol/injection, days 4 and 7, vs PBS",neither the I-domain nor GMB-I-domain significantly suppressed the progress of EAE
same,onset of disease,"EAE mouse model [2]; two i.v. injections, 26 nmol/injection, days 4 and 7, vs PBS, I-domain controls",slight delay in the onset of the disease
B2,clinical disease scores (suppression of EAE),mouse EAE model; [5],significant efficacy to suppress the progress of EAE
same,incidence of disease,mouse EAE model; [5],delayed
same,change in body weight,mouse EAE model; [5],prevent the changes of bodyweights of the mice significantly
same,efficacy compared with the BPI molecule,mouse EAE model; two i.v. injections of 26 nmol IDAC vs three of 100 nmol Ac-PLP-BPI-NH2-2,appeared less than that of the BPI molecule
same,disease incidence,"EAE mouse model [2]; i.v. 26 nmol/injection days 4 and 7, vs PBS",delays in disease incidence
same,onset of disease (clinical scores),"EAE mouse model [2]; i.v. 26 nmol/injection days 4 and 7, vs PBS, IDAC molecules",delayed the onset of disease
same,clinical scores (suppression of EAE),"EAE mouse model [2]; i.v. 26 nmol/injection days 4 and 7, vs PBS, p<0.0005, days 12-17",significantly better at suppressing EAE than PBS
same,body weight change,"EAE mouse model [2]; i.v. 26 nmol/injection days 4 and 7, vs PBS, p<0.05, days 12-24",significantly more effective than PBS in suppressing disease

# Reference: patent US9573983B2, “Compositions including I-domain antigen conjugate compounds and methods for treatment of autoimmune disorders” (University of Kansas, priority 2012, dated 2017)
